Values quoted from earlier work, collected in article PMC5711038.

Molecular target: Fbxw7 substrate receptor (Homo sapiens) (UniProt Q969H0)
Test: FRET

Sequence of UniProt Q969H0 (Q969H0 whole entry): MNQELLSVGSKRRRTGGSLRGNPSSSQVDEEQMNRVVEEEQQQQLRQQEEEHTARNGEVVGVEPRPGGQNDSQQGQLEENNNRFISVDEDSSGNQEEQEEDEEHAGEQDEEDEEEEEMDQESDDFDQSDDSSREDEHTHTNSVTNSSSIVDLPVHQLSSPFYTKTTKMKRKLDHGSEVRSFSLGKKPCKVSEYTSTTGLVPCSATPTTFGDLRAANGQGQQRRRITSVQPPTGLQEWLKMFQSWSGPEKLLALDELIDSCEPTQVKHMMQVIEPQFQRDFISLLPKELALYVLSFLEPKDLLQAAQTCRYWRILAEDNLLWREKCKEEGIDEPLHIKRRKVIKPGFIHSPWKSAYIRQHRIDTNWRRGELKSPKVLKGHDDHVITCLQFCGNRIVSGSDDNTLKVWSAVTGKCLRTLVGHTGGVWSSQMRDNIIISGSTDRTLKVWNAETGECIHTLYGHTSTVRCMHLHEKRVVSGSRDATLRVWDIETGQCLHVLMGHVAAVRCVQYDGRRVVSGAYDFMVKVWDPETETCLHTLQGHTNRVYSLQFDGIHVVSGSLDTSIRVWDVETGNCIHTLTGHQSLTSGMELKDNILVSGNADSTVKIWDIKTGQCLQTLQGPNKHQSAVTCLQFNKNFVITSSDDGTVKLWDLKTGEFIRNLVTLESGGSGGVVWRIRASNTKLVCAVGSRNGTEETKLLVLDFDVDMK

Cul1 (from UniProt Q13616)
Kd: 1 pM
